Several values for one entry are separate records, joined by “and”; a condition that tells them apart may be missing. Identical values can stand only once.
Experiments:
[1] = target: T1, human CD3 (human, UniProt P07766 23-207; P09693 23-182; P04234 22-171; P20963 22-164); assay: cell-based or functional assay
[2] = target: T2, human CD33 (human, UniProt P20138 18-364); assay: flow cytometry titration, HL-60 cells
T2 construct: whole, on cells; also called huCD33; CD33 on HL-60, KG-1, KG-1a, U-937 cells
Summary of the method: (§1)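 Cells titrated with CD33/CD3 2×2 T-cell engagers, detected via anti-His then FITC anti-mouse IgG on ice, with PI exclusion of dead cells. Background-subtracted mean fluorescence fit to one-site binding for KD; cross-reactivity ratio from KDs on CHO cells expressing recombinant cynomolgus or human CD33.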

[3] = target: T2, human CD33; assay: flow cytometry titration, KG-1 cells
Summary of the method: as §1

[4] = target: T1, human CD3; assay: flow cytometry titration, T cells (human CD3+)
[5] = target: T2, human CD33; assay: cell-based or functional assay
[6] = target: T2, human CD33; assay: flow cytometry titration, U-937 cells
Summary of the method: as §1

[7] = target: T2, human CD33; assay: flow cytometry, HL-60 cells
[8] = target: T2, human CD33; assay: cell-based or functional assay; remark: listed apart in the source
[9] = target: T2, human CD33; assay: cell-based or functional assay; remark: listed apart in the source
[10] = target: T1, human CD3; assay: flow cytometry, human T-cells
[11] = target: T2, human CD33; assay: cell-based or functional assay; remark: listed apart in the source
[12] = target: T2, human CD33; assay: cell-based or functional assay; remark: listed apart in the source

T2 sequence (P20138 18-364): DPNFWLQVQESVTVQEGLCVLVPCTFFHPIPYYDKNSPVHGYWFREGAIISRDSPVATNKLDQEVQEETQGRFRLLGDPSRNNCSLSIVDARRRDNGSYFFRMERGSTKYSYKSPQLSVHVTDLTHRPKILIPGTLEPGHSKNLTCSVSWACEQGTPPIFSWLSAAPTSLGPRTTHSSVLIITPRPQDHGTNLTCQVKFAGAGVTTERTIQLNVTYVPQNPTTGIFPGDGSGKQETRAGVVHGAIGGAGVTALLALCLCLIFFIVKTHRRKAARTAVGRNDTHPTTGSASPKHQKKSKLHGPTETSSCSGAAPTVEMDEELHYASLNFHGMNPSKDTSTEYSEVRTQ
T1 sequence (P07766 23-207, chain 1 of 4): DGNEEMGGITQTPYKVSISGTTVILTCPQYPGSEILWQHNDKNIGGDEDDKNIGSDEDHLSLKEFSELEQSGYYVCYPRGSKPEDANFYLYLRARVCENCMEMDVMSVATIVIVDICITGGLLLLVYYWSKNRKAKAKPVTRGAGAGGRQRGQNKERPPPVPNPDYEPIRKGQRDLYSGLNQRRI
T1 sequence (P09693 23-182, chain 2 of 4): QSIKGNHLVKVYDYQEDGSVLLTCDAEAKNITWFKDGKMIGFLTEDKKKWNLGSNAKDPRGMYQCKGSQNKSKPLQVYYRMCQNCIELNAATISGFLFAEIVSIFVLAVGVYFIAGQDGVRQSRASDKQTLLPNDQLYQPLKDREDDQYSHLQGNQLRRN
T1 sequence (P04234 22-171, chain 3 of 4): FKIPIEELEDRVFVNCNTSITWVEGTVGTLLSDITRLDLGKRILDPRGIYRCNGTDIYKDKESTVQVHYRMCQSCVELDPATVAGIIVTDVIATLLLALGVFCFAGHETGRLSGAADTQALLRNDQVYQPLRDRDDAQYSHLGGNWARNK
T1 sequence (P20963 22-164, chain 4 of 4): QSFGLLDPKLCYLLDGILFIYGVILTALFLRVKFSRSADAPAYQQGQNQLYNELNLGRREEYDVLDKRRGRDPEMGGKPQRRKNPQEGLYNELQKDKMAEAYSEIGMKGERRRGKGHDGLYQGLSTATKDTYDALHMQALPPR

CD25 Induction EC50 [1]: 1 pM | CD69 Induction EC50 [1]: 2 pM | T cell Proliferation in PBMC EC50 [1]: 3 pM | Kd [2]: 0.3 nM | Kd [3]: 0.2 nM | Kd [4]: 2.1 nM | EC50 (mean), redirected lysis of BV-173 cells [5]: 3.2 pM | EC50 (mean), redirected lysis of CHO-CD33 cells [5]: 24 pM | EC50 (mean), redirected lysis of HL-60 cells [5]: 1.6 pM | EC50 (mean), redirected lysis of K562 cells [5]: 4.8 pM | EC50 (mean), redirected lysis of KASUMI-1 cells [5]: 2.4 pM | EC50 (mean), redirected lysis of KG-1 cells [5]: 1.9 pM | EC50 (mean), redirected lysis of RPMI-8226 cells [5]: 2.8 pM | EC50 (mean), redirected lysis of THP-1 cells [5]: 6 pM | EC50 (mean), redirected lysis of U-937 cells [5]: 1.3 pM | Kd [6]: 0.3 nM | Kd [7]: 0.3 nM | EC50, calcein-release lysis of HL-60, 30 min incubation [9]: 4.8 pM | EC50, calcein-release lysis of HL-60, 60 min incubation [9]: 2.5 pM | EC50, calcein-release lysis of HL-60, 120 min incubation [9]: 1.6 pM | EC50, calcein-release lysis of HL-60, 180 min incubation [9]: 1.6 pM | EC50, calcein-release lysis of HL-60, 240 min incubation [9]: 1.5 pM | EC50, calcein-release lysis of HL-60, 300 min incubation [9]: 1.6 pM | Kd [10]: 5.1 nM | IC50, lysis of KG-1 cells (separate experiment) [11]: 5 pM | IC50, lysis of KG-1 cells with human T cells [11]: ~0.5 pM
B1: CD33/CD3 2×2 T-cell engager 16 (bispecific antibody)
chain: DIQMTQSPSSLSASVGDRVTITCRSSTGAVTTSNYANWVQQKPGKAPKALIGGTNKRAPGVPSRFSGSLIGDKATLTISSLQPEDFATYYCALWYSNLWVFGQGTKVEIKGGSGGSQVQLVQSGAEVKKPGASVKVSCKASGYTFTSYDINWVRQAPGQGLEWMGWMNPNSGNTGFAQKFQGRVTMTRDTSTSTVYMELSSLRSEDTAVYYCARDRANTDYSLGMDVWGQGTLVTVSSGGSGQSVLTQPPSASGTPGQRVTISCSGSRSNIGSNTVNWYQQLPGTAPKLLIYGNNQRPSGVPDRFSGSKSGTSASLAISGLQSEDEADYYCATWDDSLIGWVFGGGTKLTVLGGSGGSEVQLVESGGGLVQPGGSLRLSCAASGFTFSTYAMNWVRQAPGKGLEWVGRIRSKYNNYATYYADSVKDRFTISRDDSKNSLYLQMNSLKTEDTAVYYCARHGNFGNSYVSYFAYWGQGTLVTVSSAAAGSHHHHHH
notes: Non-covalent homodimer; also called AMV564; AMV 564
EC50 on HL-60 (cytotoxicity) [8]: 1.5 pM | EC50, cytotoxicity on HL-60 [12]: 1.5 pM and 158 pg/mL | EC50, cytotoxicity on KG-1 [12]: 1.8 pM and 189 pg/mL | EC50, cytotoxicity on U-937 [12]: 1.9 pM and 200 pg/mL | EC50, cytotoxicity, mean of HL-60, U-937, KG-1 [12]: 1.7 pM and 179 pg/mL
